The target in experiment [1] is Methanoculleus taiwanensis schizorhodopsin (Methanoculleus taiwanensis). Nature of the experiment: cryo-EM structure.
Experiment [2] has as its target Methanoculleus sp. schizorhodopsin (Methanoculleus sp. (metagenome-assembled genome)). Kind of experiment: cryo-EM structure.

A word on the stoichiometry N: it is a count of units in the complex or per binding partner. As for “Methanoculleus taiwanensis schizorhodopsin (natural protein)”, the stoichiometry N in experiment [1] was found to be 3. In turn, “Methanoculleus sp. schizorhodopsin (natural protein)” returned a stoichiometry N in experiment [2] of 3.

(Values after article doi:10.1101/2025.10.20.683367.)
